Measurements: PMC7772775, “The uncharacterized protein FAM47E interacts with PRMT5 and regulates its functions” (Life Science Alliance, 2020)

Target: T1, recombinant His-tagged PRMT5 (human, UniProt O14744-1 1-637)
T1 construct: Protein arginine methyltransferase 5 (PRMT5), full length, NM_006109.4; Cloned in pET28a; also called His-PRMT5; His-RMT5; source: bacterial expression, purified
Experiment: pull-down; 50 ug GST or GST-FAM47E on glutathione sepharose 4B, blocked with 5% BSA; 25 ug His-PRMT5 in 10 mM Tris, 150 mM NaCl, 0.5 mM EDTA, 0.1% NP40, 3 h at 4°C; washed with 300 mM NaCl, 0.5% NP40; probed with His antibody
Settings: both partners purified

T1 sequence (O14744 whole entry): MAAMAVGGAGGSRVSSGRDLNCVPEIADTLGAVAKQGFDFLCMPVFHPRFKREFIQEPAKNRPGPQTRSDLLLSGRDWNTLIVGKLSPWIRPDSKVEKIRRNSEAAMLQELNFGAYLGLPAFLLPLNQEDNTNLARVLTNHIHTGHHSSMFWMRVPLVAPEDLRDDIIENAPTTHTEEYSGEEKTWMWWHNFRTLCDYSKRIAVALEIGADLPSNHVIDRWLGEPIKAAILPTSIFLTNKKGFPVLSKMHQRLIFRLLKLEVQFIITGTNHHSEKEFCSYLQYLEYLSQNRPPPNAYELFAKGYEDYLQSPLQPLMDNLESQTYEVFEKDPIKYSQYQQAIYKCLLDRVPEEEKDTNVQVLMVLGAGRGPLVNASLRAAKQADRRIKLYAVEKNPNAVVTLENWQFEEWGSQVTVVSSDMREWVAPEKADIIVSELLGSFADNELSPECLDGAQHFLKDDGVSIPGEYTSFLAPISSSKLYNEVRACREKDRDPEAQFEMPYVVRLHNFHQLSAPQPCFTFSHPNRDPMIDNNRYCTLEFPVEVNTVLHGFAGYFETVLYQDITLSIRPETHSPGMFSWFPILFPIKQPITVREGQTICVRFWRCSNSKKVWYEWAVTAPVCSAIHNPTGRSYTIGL

binding result: binds
B1: recombinant GST-tagged FAM47E (natural protein, human, UniProt Q6ZV65-2 1-295, looked up)
chain: MQMSVPCVLSSLQNHEPNKPLFTTQSQLLSKVLEVLDPDRKLEDTWAYCQDTRKGMKEPTKLLKKHSTQVYLGPSKKTSVSNAGQWLYEEKPHKMDLLHENGPRPGLHENVCKAVSDFCKWVTTFGISDIDEEFILKQFDIDYETKPSHDALHTMKLNQVPLELKRSVGLSKLQETEFFQKLGYERKLQKPQNPYKPKWVKMRYGAWYLNPKLWKKQRVDEPLVDPEVSHKAQEENFKKELQEQEELLADLHGTVAFKDFILSRGYRTPRFLENMYIGKECKRACNKTPIKRTQA
notes: Cloned in pGEX-6P2; also called GST-FAM47E; pGEX-FAM47E; source: bacterial expression, purified
